Experimental data from patent publication US20160272693A1 (ZEALAND PHARMA A S, published 2016).
*1 amine or outer side, *2 acyl side, *3 side chain or, on linkers, in order; H or OH if unused. Bridges are numbered along the chain shown (N, C = ends). [ ]: non-standard residue; d: D form. The star is where a group is joined. C20 diacid = O=C(O)CCCCCCCCCCCCCCCCCCC(=O)*; γGlu = O=C(O)[C@H](CCC(=O)[*:2])N[*:1]; Hyp = O=C(O)[C@@H]1C[C@@H](O)CN1; NMeI = CC[C@H](C)[C@H](NC)C(=O)O; Aad = N[C@@H](CCCC(=O)O)C(=O)O; Orn = NCCC[C@H](N)C(=O)O; Sar = CNCC(=O)O

T1: human amylin receptor 3 (hAMYR3), hCTR2 co-expressed with human receptor activity modifying protein 3 (hRAMP3) (human, UniProt P30988 25-474; O60896 24-148)
T1 sequence (looked up) 1: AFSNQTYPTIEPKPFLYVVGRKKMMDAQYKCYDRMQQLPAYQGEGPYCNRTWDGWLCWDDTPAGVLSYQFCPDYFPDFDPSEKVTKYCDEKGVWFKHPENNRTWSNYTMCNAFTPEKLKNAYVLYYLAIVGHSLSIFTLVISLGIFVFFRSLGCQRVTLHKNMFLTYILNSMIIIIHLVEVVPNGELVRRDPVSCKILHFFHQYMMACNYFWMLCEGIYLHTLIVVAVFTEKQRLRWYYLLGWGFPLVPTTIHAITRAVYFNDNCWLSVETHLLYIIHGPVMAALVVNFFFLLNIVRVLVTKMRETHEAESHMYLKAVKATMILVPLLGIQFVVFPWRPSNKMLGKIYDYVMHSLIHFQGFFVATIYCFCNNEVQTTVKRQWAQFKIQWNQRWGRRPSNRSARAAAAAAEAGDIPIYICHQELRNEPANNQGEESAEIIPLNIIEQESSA
T1 sequence (looked up) 2: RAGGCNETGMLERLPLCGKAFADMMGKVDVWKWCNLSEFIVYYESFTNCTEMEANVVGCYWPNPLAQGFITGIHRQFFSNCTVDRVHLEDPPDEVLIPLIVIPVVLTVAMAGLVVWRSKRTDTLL

B1: [19CD]-isoGlu-R-C( )-GTAT-C( )-ATERLAHFLQRSSF-Gly(Me)-A-Ile(Me)-LSSTEVGS-Aad-T-Hyp-NH2 (Compd. 53) (peptide)
peptide: {C20 diacid}-[γGlu]RCGTATCATERLAHFLQRSSF[Sar]A[NMeI]LSSTEVGS[Aad]T[Hyp]-NH2
modifications: disulfide 3-8
SMILES: CC[C@H](C)[C@@H](C(=O)N[C@@H](CC(C)C)C(=O)N[C@@H](CO)C(=O)N[C@@H](CO)C(=O)N[C@H](C(=O)N[C@@H](CCC(=O)O)C(=O)N[C@H](C(=O)NCC(=O)N[C@@H](CO)C(=O)N[C@@H](CCCC(=O)O)C(=O)N[C@H](C(=O)N1C[C@H](O)C[C@H]1C(N)=O)[C@@H](C)O)C(C)C)[C@@H](C)O)N(C)C(=O)[C@H](C)NC(=O)CN(C)C(=O)[C@H](Cc1ccccc1)NC(=O)[C@H](CO)NC(=O)[C@H](CO)NC(=O)[C@H](CCCNC(=N)N)NC(=O)[C@H](CCC(N)=O)NC(=O)[C@H](CC(C)C)NC(=O)[C@H](Cc1ccccc1)NC(=O)[C@H](Cc1c[nH]cn1)NC(=O)[C@H](C)NC(=O)[C@H](CC(C)C)NC(=O)[C@H](CCCNC(=N)N)NC(=O)[C@H](CCC(=O)O)NC(=O)[C@@H](NC(=O)[C@H](C)NC(=O)[C@@H]1CSSC[C@H](NC(=O)[C@H](CCCNC(=N)N)NC(=O)CC[C@H](NC(=O)CCCCCCCCCCCCCCCCCCC(=O)O)C(=O)O)C(=O)NCC(=O)N[C@@H]([C@@H](C)O)C(=O)N[C@@H](C)C(=O)N[C@@H]([C@@H](C)O)C(=O)N1)[C@@H](C)O
B2: [19CD]-isoGlu-R-C( )-NTAT-C( )-ATQRLAHFL-Aad-RSSF-Gly(Me)-A-Ile(Me)-LSSTEVGSNT-Hyp-NH2 (Compd. 50) (peptide)
peptide: {C20 diacid-γGlu}-RCNTATCATQRLAHFL[Aad]RSSF[Sar]A[NMeI]LSSTEVGSNT[Hyp]-NH2
modifications: disulfide 2-7
SMILES: CC[C@H](C)[C@@H](C(=O)N[C@@H](CC(C)C)C(=O)N[C@@H](CO)C(=O)N[C@@H](CO)C(=O)N[C@H](C(=O)N[C@@H](CCC(=O)O)C(=O)N[C@H](C(=O)NCC(=O)N[C@@H](CO)C(=O)N[C@@H](CC(N)=O)C(=O)N[C@H](C(=O)N1C[C@H](O)C[C@H]1C(N)=O)[C@@H](C)O)C(C)C)[C@@H](C)O)N(C)C(=O)[C@H](C)NC(=O)CN(C)C(=O)[C@H](Cc1ccccc1)NC(=O)[C@H](CO)NC(=O)[C@H](CO)NC(=O)[C@H](CCCNC(=N)N)NC(=O)[C@H](CCCC(=O)O)NC(=O)[C@H](CC(C)C)NC(=O)[C@H](Cc1ccccc1)NC(=O)[C@H](Cc1c[nH]cn1)NC(=O)[C@H](C)NC(=O)[C@H](CC(C)C)NC(=O)[C@H](CCCNC(=N)N)NC(=O)[C@H](CCC(N)=O)NC(=O)[C@@H](NC(=O)[C@H](C)NC(=O)[C@@H]1CSSC[C@H](NC(=O)[C@H](CCCNC(=N)N)NC(=O)CC[C@H](NC(=O)CCCCCCCCCCCCCCCCCCC(=O)O)C(=O)O)C(=O)N[C@@H](CC(N)=O)C(=O)N[C@@H]([C@@H](C)O)C(=O)N[C@@H](C)C(=O)N[C@@H]([C@@H](C)O)C(=O)N1)[C@@H](C)O
B3: [19CD]-isoGlu-R-C( )-GTAT-C( )-ATERLAHFLQRSSF-Gly(Me)-A-Ile(Me)-LSSTEVGS-Orn-T-Hyp-NH2 (Compd. 51) (peptide)
peptide: {C20 diacid}-[γGlu]RCGTATCATERLAHFLQRSSF[Sar]A[NMeI]LSSTEVGS[Orn]T[Hyp]-NH2
modifications: disulfide 3-8
SMILES: CC[C@H](C)[C@@H](C(=O)N[C@@H](CC(C)C)C(=O)N[C@@H](CO)C(=O)N[C@@H](CO)C(=O)N[C@H](C(=O)N[C@@H](CCC(=O)O)C(=O)N[C@H](C(=O)NCC(=O)N[C@@H](CO)C(=O)N[C@@H](CCCN)C(=O)N[C@H](C(=O)N1C[C@H](O)C[C@H]1C(N)=O)[C@@H](C)O)C(C)C)[C@@H](C)O)N(C)C(=O)[C@H](C)NC(=O)CN(C)C(=O)[C@H](Cc1ccccc1)NC(=O)[C@H](CO)NC(=O)[C@H](CO)NC(=O)[C@H](CCCNC(=N)N)NC(=O)[C@H](CCC(N)=O)NC(=O)[C@H](CC(C)C)NC(=O)[C@H](Cc1ccccc1)NC(=O)[C@H](Cc1c[nH]cn1)NC(=O)[C@H](C)NC(=O)[C@H](CC(C)C)NC(=O)[C@H](CCCNC(=N)N)NC(=O)[C@H](CCC(=O)O)NC(=O)[C@@H](NC(=O)[C@H](C)NC(=O)[C@@H]1CSSC[C@H](NC(=O)[C@H](CCCNC(=N)N)NC(=O)CC[C@H](NC(=O)CCCCCCCCCCCCCCCCCCC(=O)O)C(=O)O)C(=O)NCC(=O)N[C@@H]([C@@H](C)O)C(=O)N[C@@H](C)C(=O)N[C@@H]([C@@H](C)O)C(=O)N1)[C@@H](C)O
B4: [19CD]-isoGlu-R-C( )-GTAT-C( )-ATERLAHFLQRSSF-Gly(Me)-A-Ile(Me)-LSSTEVGSGT-Hyp-NH2 (Compd. 52) (peptide)
peptide: {C20 diacid}-[γGlu]RCGTATCATERLAHFLQRSSF[Sar]A[NMeI]LSSTEVGSGT[Hyp]-NH2
modifications: disulfide 3-8
SMILES: CC[C@H](C)[C@@H](C(=O)N[C@@H](CC(C)C)C(=O)N[C@@H](CO)C(=O)N[C@@H](CO)C(=O)N[C@H](C(=O)N[C@@H](CCC(=O)O)C(=O)N[C@H](C(=O)NCC(=O)N[C@@H](CO)C(=O)NCC(=O)N[C@H](C(=O)N1C[C@H](O)C[C@H]1C(N)=O)[C@@H](C)O)C(C)C)[C@@H](C)O)N(C)C(=O)[C@H](C)NC(=O)CN(C)C(=O)[C@H](Cc1ccccc1)NC(=O)[C@H](CO)NC(=O)[C@H](CO)NC(=O)[C@H](CCCNC(=N)N)NC(=O)[C@H](CCC(N)=O)NC(=O)[C@H](CC(C)C)NC(=O)[C@H](Cc1ccccc1)NC(=O)[C@H](Cc1c[nH]cn1)NC(=O)[C@H](C)NC(=O)[C@H](CC(C)C)NC(=O)[C@H](CCCNC(=N)N)NC(=O)[C@H](CCC(=O)O)NC(=O)[C@@H](NC(=O)[C@H](C)NC(=O)[C@@H]1CSSC[C@H](NC(=O)[C@H](CCCNC(=N)N)NC(=O)CC[C@H](NC(=O)CCCCCCCCCCCCCCCCCCC(=O)O)C(=O)O)C(=O)NCC(=O)N[C@@H]([C@@H](C)O)C(=O)N[C@@H](C)C(=O)N[C@@H]([C@@H](C)O)C(=O)N1)[C@@H](C)O
B5: [19CD]-isoGlu-R-C( )-PTAT-C( )-ATDRLAHFLQRSSF-Gly(Me)-A-Ile(Me)-LSSTDVGSNT-Hyp-NH2 (Compd. 59) (peptide)
peptide: {C20 diacid}-[γGlu]RCPTATCATDRLAHFLQRSSF[Sar]A[NMeI]LSSTDVGSNT[Hyp]-NH2
modifications: disulfide 3-8
SMILES: CC[C@H](C)[C@@H](C(=O)N[C@@H](CC(C)C)C(=O)N[C@@H](CO)C(=O)N[C@@H](CO)C(=O)N[C@H](C(=O)N[C@@H](CC(=O)O)C(=O)N[C@H](C(=O)NCC(=O)N[C@@H](CO)C(=O)N[C@@H](CC(N)=O)C(=O)N[C@H](C(=O)N1C[C@H](O)C[C@H]1C(N)=O)[C@@H](C)O)C(C)C)[C@@H](C)O)N(C)C(=O)[C@H](C)NC(=O)CN(C)C(=O)[C@H](Cc1ccccc1)NC(=O)[C@H](CO)NC(=O)[C@H](CO)NC(=O)[C@H](CCCNC(=N)N)NC(=O)[C@H](CCC(N)=O)NC(=O)[C@H](CC(C)C)NC(=O)[C@H](Cc1ccccc1)NC(=O)[C@H](Cc1c[nH]cn1)NC(=O)[C@H](C)NC(=O)[C@H](CC(C)C)NC(=O)[C@H](CCCNC(=N)N)NC(=O)[C@H](CC(=O)O)NC(=O)[C@@H](NC(=O)[C@H](C)NC(=O)[C@@H]1CSSC[C@H](NC(=O)[C@H](CCCNC(=N)N)NC(=O)CC[C@H](NC(=O)CCCCCCCCCCCCCCCCCCC(=O)O)C(=O)O)C(=O)N2CCC[C@H]2C(=O)N[C@@H]([C@@H](C)O)C(=O)N[C@@H](C)C(=O)N[C@@H]([C@@H](C)O)C(=O)N1)[C@@H](C)O
B6: [19CD]-isoGlu-R-C( )-GTAT-C( )-ATERLADFLQRSSF-Gly(Me)-A-Ile(Me)-LSSTEVGSNT-Hyp-NH2 (Compd. 54) (peptide)
peptide: {C20 diacid}-[γGlu]RCGTATCATERLADFLQRSSF[Sar]A[NMeI]LSSTEVGSNT[Hyp]-NH2
modifications: disulfide 3-8
SMILES: CC[C@H](C)[C@@H](C(=O)N[C@@H](CC(C)C)C(=O)N[C@@H](CO)C(=O)N[C@@H](CO)C(=O)N[C@H](C(=O)N[C@@H](CCC(=O)O)C(=O)N[C@H](C(=O)NCC(=O)N[C@@H](CO)C(=O)N[C@@H](CC(N)=O)C(=O)N[C@H](C(=O)N1C[C@H](O)C[C@H]1C(N)=O)[C@@H](C)O)C(C)C)[C@@H](C)O)N(C)C(=O)[C@H](C)NC(=O)CN(C)C(=O)[C@H](Cc1ccccc1)NC(=O)[C@H](CO)NC(=O)[C@H](CO)NC(=O)[C@H](CCCNC(=N)N)NC(=O)[C@H](CCC(N)=O)NC(=O)[C@H](CC(C)C)NC(=O)[C@H](Cc1ccccc1)NC(=O)[C@H](CC(=O)O)NC(=O)[C@H](C)NC(=O)[C@H](CC(C)C)NC(=O)[C@H](CCCNC(=N)N)NC(=O)[C@H](CCC(=O)O)NC(=O)[C@@H](NC(=O)[C@H](C)NC(=O)[C@@H]1CSSC[C@H](NC(=O)[C@H](CCCNC(=N)N)NC(=O)CC[C@H](NC(=O)CCCCCCCCCCCCCCCCCCC(=O)O)C(=O)O)C(=O)NCC(=O)N[C@@H]([C@@H](C)O)C(=O)N[C@@H](C)C(=O)N[C@@H]([C@@H](C)O)C(=O)N1)[C@@H](C)O

Molecular target: T1, human amylin receptor 3 (hAMYR3), hCTR2 …
Experiment: cell-based or functional assay

Binder | hAMYR3 EC50 (nM); cAMP induction
B1 | 0.13 nM
B2 | 0.19 nM
{C20 diacid-γGlu}-RCNTATCATERLAHFLQRSSF[Sar]A[NMeI]LSSTEVGSNT[Hyp]-NH2 (disulfide 2-7) [[19CD]-isoGlu-R-C( )-NTAT-C( )-ATERLAHFLQRSSF-Gly(Me)-A-Ile(Me)-LSSTEVGSNT-Hyp-NH2 (Compd. 56)] | 0.08 nM
B3 | 0.11 nM
{C20 diacid}-[γGlu]RCNTATCATQRLAHFLQRSSF[Sar]A[NMeI]LSSTEVGSNT[Hyp]-NH2 (disulfide 3-8) [[19CD]-isoGlu-R-C( )-NTAT-C( )-ATQRLAHFLQRSSF-Gly(Me)-A-Ile(Me)-LSSTEVGSNT-Hyp-NH2 (Compd. 58)] | 0.1 nM
B4 | 0.09 nM
B5 | 0.11 nM
B6 | 0.14 nM
